Reference: paper doi:10.1101/2023.07.17.549407 (bioRxiv, 2023)
Where no end group is shown, it is not given here. Ahx = NCCCCCC(=O)O

T1: carboxy-terminus of Hsp70 interacting protein (CHIP), recombinant (human, UniProt Q9UNE7 1-303)
T1 sequence: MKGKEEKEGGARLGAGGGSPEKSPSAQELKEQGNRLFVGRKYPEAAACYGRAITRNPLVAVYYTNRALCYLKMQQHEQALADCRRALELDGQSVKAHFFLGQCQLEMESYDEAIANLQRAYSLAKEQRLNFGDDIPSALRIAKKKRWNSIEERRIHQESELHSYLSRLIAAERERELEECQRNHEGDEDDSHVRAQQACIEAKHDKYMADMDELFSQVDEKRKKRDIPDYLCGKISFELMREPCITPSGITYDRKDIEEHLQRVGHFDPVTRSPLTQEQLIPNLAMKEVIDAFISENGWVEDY

T2: Human CHIP(21-154)-TPR domain (human, UniProt Q9UNE7 21-154)
T2 sequence: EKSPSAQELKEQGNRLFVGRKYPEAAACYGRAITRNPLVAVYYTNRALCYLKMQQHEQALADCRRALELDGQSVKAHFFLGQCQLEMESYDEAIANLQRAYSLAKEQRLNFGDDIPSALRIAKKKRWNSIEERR


Columns and labels:
[1] = target: T1, carboxy-terminus of Hsp70 interacting …; assay: fluorescence polarisation
[2] = target: T2, Human CHIP(21-154)-TPR domain; assay: crystal structure

| Binder | binding result [1] | other results |
| --- | --- | --- |
| {FAM-Ahx}-IWWPD [IWWPD tracer] | binds |  |
| {FAM-Ahx}-IFRPD [labeled CHIC2 peptide (FAM-Ahx-IFRPD)] |  | Kd [1]: 148 ± 6 nM |
| {FAM-Ahx}-IEEVD [Hsp70 C-terminal tracer (FAM-Ahx-IEEVD)] | binds |  |
| LWWPD (not fully specified (N-terminus); printed as FITC-Ahx-LWWPD) [CHIPOpt tracer (FITC-Ahx-LWWPD)] | binds |  |
| EFLPKTPIFRPD [HsCHIC2(154-165)-c-term peptide] |  | binding result [2]: binds |
| Ac-LPKTPIFRPD [CHIC2 C-terminal 10-mer peptide Ac-LPKTPIFRPD] | binds |  |
